Positions of bridges follow the written chain, without caps; N, C: chain ends. No end group written: not given here. COCH2 = acetyl group that carries the bridge
Target: T1, Recombinant Human FGFR1 alpha (IIIc) Fc Chimera Protein (Homo sapiens, UniProt P11362)
T1 construct: purchased R&D systems 658-FR-050
Assay: ELISA binding affinity of enzymatically synthesized peptide to FGFR
Conditions: ELISA luminescence signal at 10 nmol/L peptide, SEQ ID NO: 239 standardized to 1; enzyme synthesis product
Procedure: The binding affinity of the peptide to FGFR was evaluated using an ELISA method.
The peptide used for the evaluation was enzymatically synthesized by the following method.
First, a fusion peptide (SEQ ID NO: 25) in which a translation enhancing sequence (SEQ ID NO: 22), a peptide, a Myc tag (SEQ ID NO: 23), and a HiBiT tag (SEQ ID NO: 24) were linked in this order was designed. Next, a template DNA sequence (SEQ ID NO: 26) was designed in which a T7 promoter sequence, a Shine-Dalgarno sequence, a sequence necessary for transcription and translation initiation, such as a start codon (ATG), was provided on the 5′ terminal side of the DNA sequence encoding the fused peptide, and a stop codon group was provided on the 3′ terminal side thereof. In a case where the triplet TAG codon is included in the template DNA sequence, the above-described codon is assigned to the codon of chloroacetylated lysine, and thus, the peptide encoded by the above-described DNA sequence is a cyclic peptide in which a thiol group of cysteine and a chloroacetyl group of chloroacetylated lysine spontaneously form a thioether bond.
The cell-free enzymatic synthesis of the polypeptide was performed in a translation solution containing a template DNA, PUREfrex 2.0 (GeneFrontier, PF201-0.25-5), and Aminoacyl tRNA (1). 1.75 μL ([…]) of the template DNA prepared to 50 ng/μL, 2.5 μL of PUREfrex 2.0 Solution I, 0.25 μL of Solution II, 0.5 μL of Solution III, and a dried product of Aminoacyl tRNA (1) (final concentration: 0.5 ng/μL) were mixed and mixture was subjected to a reaction at 37° C. for 1 hour.
The concentration of the enzymatically synthesized peptide was measured using the peptide diluted with Can Get Signal Immunoreaction Enhancer Solution I (TOYOBO, NKB-101), Nano-Glo HiBiT Lytic Detection System (Promega, N3040), and a chemical synthetic peptide for a calibration curve having a known concentration (SEQ ID NO: 33) according to the standard protocol of the Nano-Glo HiBiT Lytic Detection System.
The binding affinity of the enzymatically synthesized peptide to FGFR was measured by evaluating the amount of the peptide bound to FGFR by ELISA.
First, 5 ng of Recombinant Human FGFR1 alpha (IIIc) Fc Chimera Protein (R&D systems, 658-FR-050) was immobilized in each well of a 96-well plate, and blocked with Pierce Protein-Free (PBS) Blocking Buffer (Thermo, 37572), and a peptide diluted with Can Get Signal Immunoreaction Enhancer Solution I (TOYOBO, NKB-101) was then added and reacted at room temperature for 3 hours. After washing with 0.05% Tween 20-containing phosphate buffered saline (PBS), an anti-Myc antibody (Cell Signaling, 14038S) diluted with Can Get Signal Immunoreaction Enhancer Solution II (TOYOBO, NKB-101) was added and reacted at room temperature for 2 hours. After washing with 0.05% Tween 20-containing PBS, SuperSignal ELISA Femto Substrate (Thermo, 37075) was added, and the luminescence amount was measured. The dose-response relationship was calculated from using the difference between the luminescence amount in the well in which FGFR was immobilized and the luminescence amount in the well in which FGFR was not immobilized, and the concentration of the peptide at the time of reaction, and the binding affinity to FGFR was evaluated according to the following evaluation criteria. The evaluation result preferably satisfies the evaluation criteria A, B, or C.
In a case where a value of a luminescence signal emitted by the cyclic peptide set forth in SEQ ID NO: 239 at a reaction concentration of 10 nmol/L is standardized to 1, evaluation criteria of the luminescence signal value emitted by the peptide at a reaction concentration of 10 nmol/L is as follows. • A: 0.7 or more • B: 0.5 or more and less than 0.7 • C: 0.1 or more and less than 0.5 • D: less than 0.1.

T1 sequence (P11362 with tags, fused parts or gaps limits assumed): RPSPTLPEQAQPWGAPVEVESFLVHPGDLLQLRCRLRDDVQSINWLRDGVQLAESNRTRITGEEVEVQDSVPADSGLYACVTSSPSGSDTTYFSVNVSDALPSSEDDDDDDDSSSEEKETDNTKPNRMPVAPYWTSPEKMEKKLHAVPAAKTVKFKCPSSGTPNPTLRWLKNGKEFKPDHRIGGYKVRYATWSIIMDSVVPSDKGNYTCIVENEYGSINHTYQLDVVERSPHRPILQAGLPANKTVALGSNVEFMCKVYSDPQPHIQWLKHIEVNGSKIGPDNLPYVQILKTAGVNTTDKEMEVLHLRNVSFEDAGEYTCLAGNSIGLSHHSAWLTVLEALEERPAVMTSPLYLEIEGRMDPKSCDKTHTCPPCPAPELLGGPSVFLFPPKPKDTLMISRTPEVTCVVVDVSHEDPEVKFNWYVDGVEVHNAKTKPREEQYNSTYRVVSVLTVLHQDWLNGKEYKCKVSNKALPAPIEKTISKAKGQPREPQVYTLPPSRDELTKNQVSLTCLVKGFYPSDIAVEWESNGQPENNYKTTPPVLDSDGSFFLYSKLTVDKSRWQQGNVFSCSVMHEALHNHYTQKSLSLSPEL

| Substance | Evaluation result of binding affinity to FGFR |
| --- | --- |
| 77 (ICVYTWDAHAHSLHAALTK(COCH2)I; thioether 2-19 (inferred)) [compound 77] | B (0.5 or more and less than 0.7) |
| 78 (ICVYTSDAHAHSLHAALTK(COCH2)I; thioether 2-19 (inferred)) [compound 78] | C (0.1 or more and less than 0.5) |
| 79 (ICVYTHDAHAHSLHAALTK(COCH2)I; thioether 2-19 (inferred)) [compound 79] | C (0.1 or more and less than 0.5) |
| 80 (ICVYTFAAHAHSLHAALTK(COCH2)I; thioether 2-19 (inferred)) [compound 80] | C (0.1 or more and less than 0.5) |
| 81 (ICVYTFGAHAHSLHAALTK(COCH2)I; thioether 2-19 (inferred)) [compound 81] | C (0.1 or more and less than 0.5) |
| 82 (ICVYTFPAHAHSLHAALTK(COCH2)I; thioether 2-19 (inferred)) [compound 82] | C (0.1 or more and less than 0.5) |
| 83 (ICVYTFVAHAHSLHAALTK(COCH2)I; thioether 2-19 (inferred)) [compound 83] | C (0.1 or more and less than 0.5) |
| 84 (ICVYTFFAHAHSLHAALTK(COCH2)I; thioether 2-19 (inferred)) [compound 84] | C (0.1 or more and less than 0.5) |
| 85 (ICVYTFYAHAHSLHAALTK(COCH2)I; thioether 2-19 (inferred)) [compound 85] | C (0.1 or more and less than 0.5) |
| 86 (ICVYTFWAHAHSLHAALTK(COCH2)I; thioether 2-19 (inferred)) [compound 86] | C (0.1 or more and less than 0.5) |
| 87 (ICVYTFNAHAHSLHAALTK(COCH2)I; thioether 2-19 (inferred)) [compound 87] | A (0.7 or more) |
| 88 (ICVYTFSAHAHSLHAALTK(COCH2)I; thioether 2-19 (inferred)) [compound 88] | C (0.1 or more and less than 0.5) |
| 89 (ICVYTFDGHAHSLHAALTK(COCH2)I; thioether 2-19 (inferred)) [compound 89] | B (0.5 or more and less than 0.7) |
| 90 (ICVYTFDPHAHSLHAALTK(COCH2)I; thioether 2-19 (inferred)) [compound 90] | B (0.5 or more and less than 0.7) |
| 91 (ICVYTFDLHAHSLHAALTK(COCH2)I; thioether 2-19 (inferred)) [compound 91] | C (0.1 or more and less than 0.5) |
| 92 (ICVYTFDIHAHSLHAALTK(COCH2)I; thioether 2-19 (inferred)) [compound 92] | C (0.1 or more and less than 0.5) |
| 93 (ICVYTFDVHAHSLHAALTK(COCH2)I; thioether 2-19 (inferred)) [compound 93] | C (0.1 or more and less than 0.5) |
| 94 (ICVYTFDYHAHSLHAALTK(COCH2)I; thioether 2-19 (inferred)) [compound 94] | C (0.1 or more and less than 0.5) |
| 95 (ICVYTFDWHAHSLHAALTK(COCH2)I; thioether 2-19 (inferred)) [compound 95] | C (0.1 or more and less than 0.5) |
| 96 (ICVYTFDNHAHSLHAALTK(COCH2)I; thioether 2-19 (inferred)) [compound 96] | C (0.1 or more and less than 0.5) |
| 97 (ICVYTFDQHAHSLHAALTK(COCH2)I; thioether 2-19 (inferred)) [compound 97] | A (0.7 or more) |
| 98 (ICVYTFDSHAHSLHAALTK(COCH2)I; thioether 2-19 (inferred)) [compound 98] | A (0.7 or more) |
| 99 (ICVYTFDTHAHSLHAALTK(COCH2)I; thioether 2-19 (inferred)) [compound 99] | C (0.1 or more and less than 0.5) |
| 100 (ICVYTFDEHAHSLHAALTKI; Description of Artificial Sequence: Cyclic peptide) [compound 100] | A (0.7 or more) |
| 101 (ICVYTFDRHAHSLHAALTKI; Description of Artificial Sequence: Cyclic peptide) [compound 101] | A (0.7 or more) |

Results, then the substance that gave them:

| Evaluation result of binding affinity to FGFR | Substance |
| --- | --- |
| B (0.5 or more and less than 0.7) | 102 (ICVYTFDHHAHSLHAALTKI; Description of Artificial Sequence: Cyclic peptide) [compound 102] |
| A (0.7 or more) | 103 (ICVYTFDAAAHSLHAALTKI; Description of Artificial Sequence: Cyclic peptide) [compound 103] |
| A (0.7 or more) | 104 (ICVYTFDAGAHSLHAALTKI; Description of Artificial Sequence: Cyclic peptide) [compound 104] |
| A (0.7 or more) | 105 (ICVYTFDALAHSLHAALTKI; Description of Artificial Sequence: Cyclic peptide) [compound 105] |
| C (0.1 or more and less than 0.5) | 106 (ICVYTFDAIAHSLHAALTKI; Description of Artificial Sequence: Cyclic peptide) [compound 106] |
| C (0.1 or more and less than 0.5) | 107 (ICVYTFDAVAHSLHAALTKI; Description of Artificial Sequence: Cyclic peptide) [compound 107] |
| B (0.5 or more and less than 0.7) | 108 (ICVYTFDAFAHSLHAALTKI; Description of Artificial Sequence: Cyclic peptide) [compound 108] |
| B (0.5 or more and less than 0.7) | 109 (ICVYTFDAYAHSLHAALTKI; Description of Artificial Sequence: Cyclic peptide) [compound 109] |
| C (0.1 or more and less than 0.5) | 110 (ICVYTFDAWAHSLHAALTKI; Description of Artificial Sequence: Cyclic peptide) [compound 110] |
| A (0.7 or more) | 111 (ICVYTFDANAHSLHAALTKI; Description of Artificial Sequence: Cyclic peptide) [compound 111] |
| A (0.7 or more) | 112 (ICVYTFDAQAHSLHAALTKI; Description of Artificial Sequence: Cyclic peptide) [compound 112] |
| A (0.7 or more) | 113 (ICVYTFDASAHSLHAALTKI; Description of Artificial Sequence: Cyclic peptide) [compound 113] |
| A (0.7 or more) | 114 (ICVYTFDATAHSLHAALTKI; Description of Artificial Sequence: Cyclic peptide) [compound 114] |
| A (0.7 or more) | 115 (ICVYTFDADAHSLHAALTKI; Description of Artificial Sequence: Cyclic peptide) [compound 115] |
| A (0.7 or more) | 116 (ICVYTFDAEAHSLHAALTKI; Description of Artificial Sequence: Cyclic peptide) [compound 116] |
